Assay results from patent publication US11555055B2, “Peptide inhibitors of insulin-degrading enzyme” (The Regents of the University of California, priority 2017, dated 2023).
Where a SMILES comes first, the peptide text is derived from it. Bridges are numbered along the chain shown (N, C = ends). Where no end group is shown, it is not given here.

T1: IDE (Homo sapiens, UniProt P14735)
T1 construct: made in house; host or cells: bacteria
T1 sequence (P14735 1-1019): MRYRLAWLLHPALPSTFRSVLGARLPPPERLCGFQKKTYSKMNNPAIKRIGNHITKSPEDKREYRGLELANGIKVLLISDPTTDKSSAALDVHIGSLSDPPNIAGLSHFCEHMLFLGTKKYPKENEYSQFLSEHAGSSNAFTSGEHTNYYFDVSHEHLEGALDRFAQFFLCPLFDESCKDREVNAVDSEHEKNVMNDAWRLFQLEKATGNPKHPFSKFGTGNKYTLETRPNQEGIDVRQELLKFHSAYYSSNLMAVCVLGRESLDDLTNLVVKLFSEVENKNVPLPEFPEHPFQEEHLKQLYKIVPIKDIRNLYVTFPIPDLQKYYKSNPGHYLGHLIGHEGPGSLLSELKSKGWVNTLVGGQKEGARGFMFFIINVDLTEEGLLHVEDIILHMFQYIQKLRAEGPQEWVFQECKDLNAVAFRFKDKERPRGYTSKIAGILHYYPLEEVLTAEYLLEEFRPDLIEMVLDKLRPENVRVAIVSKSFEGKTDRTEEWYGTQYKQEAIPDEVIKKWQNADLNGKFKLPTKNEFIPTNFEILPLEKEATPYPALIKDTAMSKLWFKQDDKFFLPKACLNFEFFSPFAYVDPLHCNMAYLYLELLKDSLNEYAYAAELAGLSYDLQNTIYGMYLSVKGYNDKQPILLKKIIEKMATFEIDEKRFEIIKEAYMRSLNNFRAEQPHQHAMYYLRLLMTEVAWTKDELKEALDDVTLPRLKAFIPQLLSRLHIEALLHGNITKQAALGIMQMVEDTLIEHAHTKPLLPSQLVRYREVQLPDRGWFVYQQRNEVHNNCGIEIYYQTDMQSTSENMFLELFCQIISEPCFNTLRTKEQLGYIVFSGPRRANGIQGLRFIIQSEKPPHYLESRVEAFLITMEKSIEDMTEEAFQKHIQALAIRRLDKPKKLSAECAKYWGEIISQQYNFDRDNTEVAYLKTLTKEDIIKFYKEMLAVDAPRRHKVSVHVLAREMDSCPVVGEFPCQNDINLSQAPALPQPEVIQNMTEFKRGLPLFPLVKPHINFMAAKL

T2: recombinant human insulin-degrading enzyme (IDE) (human, UniProt P14735 42-1019, limits assumed)
T2 construct: Used at 1 nM in the in vitro activity assays; immobilised on plates for phage panning
T2 sequence (looked up): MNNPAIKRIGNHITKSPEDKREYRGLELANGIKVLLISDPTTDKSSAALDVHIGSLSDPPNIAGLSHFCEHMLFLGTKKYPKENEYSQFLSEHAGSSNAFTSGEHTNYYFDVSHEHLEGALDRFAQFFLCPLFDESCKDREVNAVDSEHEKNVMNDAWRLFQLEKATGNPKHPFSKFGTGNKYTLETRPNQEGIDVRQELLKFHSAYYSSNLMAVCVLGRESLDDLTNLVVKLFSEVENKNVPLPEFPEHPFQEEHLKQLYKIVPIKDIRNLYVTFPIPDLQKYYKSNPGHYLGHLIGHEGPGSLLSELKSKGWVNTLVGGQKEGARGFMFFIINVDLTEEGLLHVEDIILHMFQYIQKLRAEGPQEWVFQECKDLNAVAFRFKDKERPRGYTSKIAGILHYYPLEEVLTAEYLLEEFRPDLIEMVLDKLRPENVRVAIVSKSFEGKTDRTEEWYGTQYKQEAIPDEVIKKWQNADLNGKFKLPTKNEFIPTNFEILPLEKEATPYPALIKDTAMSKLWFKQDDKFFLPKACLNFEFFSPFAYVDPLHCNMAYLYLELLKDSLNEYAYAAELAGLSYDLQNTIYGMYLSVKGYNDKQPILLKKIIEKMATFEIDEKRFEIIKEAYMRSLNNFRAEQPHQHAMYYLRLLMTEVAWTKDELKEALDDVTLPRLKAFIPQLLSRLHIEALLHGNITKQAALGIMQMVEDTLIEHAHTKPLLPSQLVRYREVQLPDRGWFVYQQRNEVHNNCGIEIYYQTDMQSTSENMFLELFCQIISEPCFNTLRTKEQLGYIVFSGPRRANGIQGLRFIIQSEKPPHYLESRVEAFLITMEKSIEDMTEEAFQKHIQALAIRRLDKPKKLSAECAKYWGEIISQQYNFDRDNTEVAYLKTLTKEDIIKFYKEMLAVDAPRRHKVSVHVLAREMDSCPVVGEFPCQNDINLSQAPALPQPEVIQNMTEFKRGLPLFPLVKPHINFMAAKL


How the values were obtained:
IDE [1] = molecular target: T1, IDE; test: IDE protease activity assay, insulin degradation quantified by ELISA; format: biochemical; details: substrate recombinant human insulin; Ki converted from IC50 with the Cheng-Prusoff equation; read-out: Ki Insulin
Description: To assess the extent to which these peptide sequences inhibit IDE, we quantified their potency in protease activity assays using recombinant human IDE and two different substrates: FRET1, a fluorogenic peptide (45), and recombinant human insulin.
Degradation Assays—IDE activity was quantified by monitoring the degradation of (7-methoxycoumarin-4-yl)acetic acid-[…](2,4-dinitrophenyl) (FRET1, 5 μM) (49,55), fluoresceinated and biotinylated amyloid β-protein (FAβB; 500 nM) or recombinant human insulin (50 nM) in PBS supplemented with 0.05% BSA. FRET1 degradation was measured by changes in fluorescence (λex=340 nm, λem=420 nm); FAβB degradation was monitored by fluorescence polarization (λex=488 nm, λem=525 nm), as described (56); and insulin degradation was quantified by ELISA. In vitro activity assays incorporated recombinant human IDE (1 nM) purified from bacteria (35). For quantitation of insulin degradation in primary murine skin fibroblasts, cells (1×10^5/well) were plated in 96-well plates and maintained in DMEM supplemented with 10% fetal bovine serum (FBS), 2 mM glutamine, penicillin and streptomycin. After addition of insulin (10 nM or 100 nM), samples of conditioned medium were removed daily and quickly frozen, then insulin levels were quantified in parallel by ELISA according to manufacturer's recommendations (Crystal Chem, Downers Grove, Ill., USA). Assessment of the activity of P12-3A against a variety of matrix-metalloproteases was conducted using the Matrix Metalloproteinase (MMP) Inhibitor Profiling Kit, Fluorometric RED (Enzo Life Sciences, Inc., Farmingdale, N.Y., USA) according to manufacturer's recommendations using the broad-spectrum MMP inhibitor, NNGH, as a positive control.

IDE [2] = molecular target: T1, IDE; test: IDE protease activity assay with FRET1 substrate; format: biochemical; details: Ki converted from IC50 with the Cheng-Prusoff equation
[3] = molecular target: T2, recombinant human insulin-degrading …; test: IDE activity assay, FRET1 substrate
[4] = molecular target: T2, recombinant human insulin-degrading …; test: IDE activity assay, insulin substrate (ELISA)
[5] = molecular target: T2, recombinant human insulin-degrading …; test: IDE activity assay, FRET1 substrate; IC50 converted to Ki (Cheng-Prusoff)

| Ki (IDE [1]) [µM] | Ki (IDE [2]) [µM] | Ki [3] [µM] | Ki [4] [µM] | Ki [5] [µM] | Molecule |
| --- | --- | --- | --- | --- | --- |
| 0.8 ± 0.04 | 7.7 ± 0.7 |  |  |  | CC(C)[C@H](N)C(=O)N[C@@H](Cc1c[nH]cn1)C(=O)N[C@@H](Cc1c[nH]c2ccccc12)C(=O)N[C@@H](CC(=O)O)C(=O)N[C@@H](Cc1ccccc1)C(=O)N[C@@H](CCCNC(=N)N)C(=O)N[C@@H](CCC(N)=O)C(=O)N[C@@H](Cc1c[nH]c2ccccc12)C(=O)N[C@@H](Cc1c[nH]c2ccccc12)C(=O)N[C@@H](CCC(N)=O)C(=O)N1CCC[C@H]1C(=O)N[C@@H](CO)C(=O)O [Peptide P12-1] (H-VHWDFRQWWQPS-OH) |
|  | 39 ± 20 |  |  |  | CC(C)C[C@H](NC(=O)[C@H](CO)NC(=O)[C@@H](N)CCC(N)=O)C(=O)N1CCC[C@H]1C(=O)N[C@@H](Cc1c[nH]c2ccccc12)C(=O)N[C@@H](CS)C(=O)N[C@@H](Cc1ccc(O)cc1)C(=O)N1CCC[C@H]1C(N)=O [Peptide P12-3B] (H-QSLPWCYP-NH2) |
| 1.3 ± 0.2 | 5 ± 0.3 |  |  |  | CC(C)[C@H](N)C(=O)N[C@@H](Cc1c[nH]cn1)C(=O)N[C@@H](Cc1c[nH]c2ccccc12)C(=O)N[C@@H](CC(=O)O)C(=O)N[C@@H](Cc1ccccc1)C(=O)N[C@@H](CCCNC(=N)N)C(=O)N[C@@H](CCC(N)=O)C(=O)N[C@@H](Cc1c[nH]c2ccccc12)C(=O)N[C@@H](Cc1c[nH]c2ccccc12)C(=O)N[C@@H](CCC(N)=O)C(=O)N1CCC[C@H]1C(=O)N[C@@H](CO)C(N)=O [Peptide P12-1A] (H-VHWDFRQWWQPS-NH2) |
| 7 ± 1.7 | 41 ± 6.4 |  |  |  | CC(C)[C@H](N)C(=O)N[C@@H](Cc1c[nH]cn1)C(=O)N[C@@H](Cc1c[nH]c2ccccc12)C(=O)N[C@@H](CC(=O)O)C(=O)N[C@@H](Cc1ccccc1)C(=O)N[C@@H](CCCNC(=N)N)C(=O)N[C@@H](CCC(N)=O)C(=O)N[C@@H](Cc1c[nH]c2ccccc12)C(N)=O [Peptide P12-1B] (H-VHWDFRQW-NH2) |
| 1.5 ± 0.3 | 3.9 ± 0.5 |  |  |  | CC[C@H](C)[C@H](NC(=O)[C@@H]1CCCN1C(=O)[C@H](CO)NC(=O)[C@@H](N)Cc1c[nH]c2ccccc12)C(=O)N[C@@H](CO)C(=O)NCC(=O)N[C@@H](CCCCN)C(=O)N[C@@H](Cc1ccccc1)C(=O)N[C@@H](Cc1ccccc1)C(=O)N[C@@H](CCC(N)=O)C(=O)N[C@@H](CCCNC(=N)N)C(=O)N[C@@H](Cc1ccccc1)C(=O)O [Peptide P12-4] (H-WSPISGKFFQRF-OH) |
| 2.6 ± 0.7 | 4.2 ± 1.3 |  |  |  | CC[C@H](C)[C@H](NC(=O)[C@@H]1CCCN1C(=O)[C@H](CO)NC(=O)[C@@H](N)Cc1c[nH]c2ccccc12)C(=O)N[C@@H](CO)C(=O)NCC(=O)N[C@@H](CCCCN)C(=O)N[C@@H](Cc1ccccc1)C(=O)N[C@@H](Cc1ccccc1)C(=O)N[C@@H](CCC(N)=O)C(=O)N[C@@H](CCCNC(=N)N)C(=O)N[C@@H](Cc1ccccc1)C(N)=O [Peptide P12-4A] (H-WSPISGKFFQRF-NH2) |

Second part, the molecule before the results:

| Molecule | Ki (IDE [1]) [µM] | Ki (IDE [2]) [µM] | Ki [3] [µM] | Ki [4] [µM] | Ki [5] [µM] |
| --- | --- | --- | --- | --- | --- |
| CC[C@H](C)[C@@H]1NC(=O)[C@H](CO)NC(=O)[C@H](Cc2c[nH]c3ccccc23)NC(=O)[C@H](Cc2c[nH]c3ccccc23)NC(=O)[C@H](CO)NC(=O)[C@@H](NC(=O)[C@H](C)N)CSSC[C@@H](C(=O)NCC(=O)O)NC(=O)[C@H](CC(C)C)NC(=O)[C@H](Cc2c[nH]cn2)NC1=O [Peptide C7C-1] (H-ACSWWSIHLCG-OH; disulfide 2-10) | 3.7 ± 0.7 | 112 ± 6 |  |  |  |
| ACSWWSIHLCGGG (disulfide 2-10 (inferred)) [C7C-1B] |  |  | > 100 | > 10 |  |
| LNFPMPSRPHSS [P12-2] |  |  | > 100 | > 10 |  |
| Ac-FPMPSRPH-NH2 [P12-2D] |  |  | > 500 | > 10 |  |
| Ac-PISGKFFQ-NH2 [P12-4D] |  |  | > 500 | > 10 |  |
| Ac-SGKFFQRF [P12-4C] |  |  | > 500 | > 10 |  |
| QSLPWCYP-NH2 (also called C-terminally truncated variant of P12-3) [P12-3B] |  |  |  | > 10 |  |
| LNFPMPSR-NH2 [P12-2B] |  |  | > 500 | > 10 |  |
| Ac-MPSRPHSS [P12-2C] |  |  | > 500 | > 10 |  |
| Ac-WCYPHCVT-OH (cysteine pairing not given here, also called N-terminally truncated variant of P12-3) [P12-3C] |  |  |  | > 10 |  |
| ACNAGHLSQCG-NH2 (disulfide 2-10 (inferred), also called amidated derivative of C7C-2) [C7C-2A] |  |  | > 500 | > 10 |  |
| LNFPMPSRPHSS-NH2 [P12-2A] |  |  | > 100 | > 10 |  |
| WSPISGKF-NH2 [P12-4B] |  |  | > 500 | > 10 |  |
| ACNAGHLSQCG (disulfide 2-10 (inferred), the synthesized peptide has one C-terminal glycine) [C7C-2] |  |  | > 500 | > 10 |  |
| Ac-FRQWWQPS (also called N-terminally truncated variant of P12-1) [P12-1C] |  |  |  | > 10 | 139 |
